For this test, the target named is T1, full-length recombinant human TG2 (human, UniProt P21980 1-687).
T1 sequence: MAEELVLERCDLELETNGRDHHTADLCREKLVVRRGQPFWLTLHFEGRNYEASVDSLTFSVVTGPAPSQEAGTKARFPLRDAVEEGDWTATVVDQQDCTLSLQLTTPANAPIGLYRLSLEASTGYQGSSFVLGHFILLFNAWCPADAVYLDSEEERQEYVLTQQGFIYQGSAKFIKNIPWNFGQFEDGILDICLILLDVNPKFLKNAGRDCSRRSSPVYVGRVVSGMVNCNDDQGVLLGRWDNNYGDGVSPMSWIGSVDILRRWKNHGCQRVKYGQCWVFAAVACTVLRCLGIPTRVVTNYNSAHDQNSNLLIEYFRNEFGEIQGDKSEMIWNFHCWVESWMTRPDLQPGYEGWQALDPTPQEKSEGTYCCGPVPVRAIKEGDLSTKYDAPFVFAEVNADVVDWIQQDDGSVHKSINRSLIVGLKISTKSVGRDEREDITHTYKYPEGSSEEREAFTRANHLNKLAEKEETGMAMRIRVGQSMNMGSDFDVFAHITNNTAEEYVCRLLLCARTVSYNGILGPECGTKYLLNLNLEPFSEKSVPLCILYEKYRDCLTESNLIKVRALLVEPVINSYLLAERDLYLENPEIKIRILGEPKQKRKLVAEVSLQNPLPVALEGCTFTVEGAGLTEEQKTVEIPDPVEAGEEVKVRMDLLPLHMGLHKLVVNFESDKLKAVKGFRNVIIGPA
As to the kind of experiment: co-IP.

B1: full-length recombinant human ILK (natural protein)
chain: MDDIFTQCREGNAVAVRLWLDNTENDLNQGDDHGFSPLHWACREGRSAVVEMLIMRGARINVMNRGDDTPLHLAASHGHRDIVQKLLQYKADINAVNEHGNVPLHYACFWGQDQVAEDLVANGALVSICNKYGEMPVDKAKAPLRELLRERAEKMGQNLNRIPYKDTFWKGTTRTRPRNGTLNKHSGIDFKQLNFLTKLNENHSGELWKGRWQGNDIVVKVLKVRDWSTRKSRDFNEECPRLRIFSHPNVLPVLGACQSPPAPHPTLITHWMPYGSLYNVLHEGTNFVVDQSQAVKFALDMARGMAFLHTLEPLIPRHALNSRSVMIDEDMTARISMADVKFSFQCPGRMYAPAWVAPEALQKKPEDTNRRSADMWSFAVLLWELVTREVPFADLSNMEIGMKVALEGLRPTIPPGISPHVCKLMKICMNEDPAKRPKFDMIVPILEKMQDK
As for B1, the binding result is recorded as “binds”.

For the origin of these results see PMC9358478 (The Journal of Biological Chemistry, 2022).
